# From PMC9629490 (Acta Crystallographica. Section D, Structural Biology, 2022)
# Target: T1, human SNRNP200^395-2136 (truncated SNRNP200 lacking the first 394 residues) (human, UniProt O75643 395-2136)
# T1 construct: In the co-purification with PRPF8^RH-JM the complex was captured on Ni-NTA and the tag was then cut with TEV protease; also called SNRNP200 helicase; source: modified pFL vector; purified, obtained as described previously (Santos et al., 2012); also co-produced with PRPF8^RH-JM in Sf9 cells (baculovirus)
# Experiment: SEC; analytical SEC, Superdex 200 Increase PC3.2/30, 20 mM Tris-HCl pH 7.5, 250 mM NaCl, 0.5 mM DTT; proteins mixed in equimolar ratios, 30 min on ice; fractions analyzed by SDS-PAGE
# Conditions: both partners purified
# T1 sequence (O75643 395-2136): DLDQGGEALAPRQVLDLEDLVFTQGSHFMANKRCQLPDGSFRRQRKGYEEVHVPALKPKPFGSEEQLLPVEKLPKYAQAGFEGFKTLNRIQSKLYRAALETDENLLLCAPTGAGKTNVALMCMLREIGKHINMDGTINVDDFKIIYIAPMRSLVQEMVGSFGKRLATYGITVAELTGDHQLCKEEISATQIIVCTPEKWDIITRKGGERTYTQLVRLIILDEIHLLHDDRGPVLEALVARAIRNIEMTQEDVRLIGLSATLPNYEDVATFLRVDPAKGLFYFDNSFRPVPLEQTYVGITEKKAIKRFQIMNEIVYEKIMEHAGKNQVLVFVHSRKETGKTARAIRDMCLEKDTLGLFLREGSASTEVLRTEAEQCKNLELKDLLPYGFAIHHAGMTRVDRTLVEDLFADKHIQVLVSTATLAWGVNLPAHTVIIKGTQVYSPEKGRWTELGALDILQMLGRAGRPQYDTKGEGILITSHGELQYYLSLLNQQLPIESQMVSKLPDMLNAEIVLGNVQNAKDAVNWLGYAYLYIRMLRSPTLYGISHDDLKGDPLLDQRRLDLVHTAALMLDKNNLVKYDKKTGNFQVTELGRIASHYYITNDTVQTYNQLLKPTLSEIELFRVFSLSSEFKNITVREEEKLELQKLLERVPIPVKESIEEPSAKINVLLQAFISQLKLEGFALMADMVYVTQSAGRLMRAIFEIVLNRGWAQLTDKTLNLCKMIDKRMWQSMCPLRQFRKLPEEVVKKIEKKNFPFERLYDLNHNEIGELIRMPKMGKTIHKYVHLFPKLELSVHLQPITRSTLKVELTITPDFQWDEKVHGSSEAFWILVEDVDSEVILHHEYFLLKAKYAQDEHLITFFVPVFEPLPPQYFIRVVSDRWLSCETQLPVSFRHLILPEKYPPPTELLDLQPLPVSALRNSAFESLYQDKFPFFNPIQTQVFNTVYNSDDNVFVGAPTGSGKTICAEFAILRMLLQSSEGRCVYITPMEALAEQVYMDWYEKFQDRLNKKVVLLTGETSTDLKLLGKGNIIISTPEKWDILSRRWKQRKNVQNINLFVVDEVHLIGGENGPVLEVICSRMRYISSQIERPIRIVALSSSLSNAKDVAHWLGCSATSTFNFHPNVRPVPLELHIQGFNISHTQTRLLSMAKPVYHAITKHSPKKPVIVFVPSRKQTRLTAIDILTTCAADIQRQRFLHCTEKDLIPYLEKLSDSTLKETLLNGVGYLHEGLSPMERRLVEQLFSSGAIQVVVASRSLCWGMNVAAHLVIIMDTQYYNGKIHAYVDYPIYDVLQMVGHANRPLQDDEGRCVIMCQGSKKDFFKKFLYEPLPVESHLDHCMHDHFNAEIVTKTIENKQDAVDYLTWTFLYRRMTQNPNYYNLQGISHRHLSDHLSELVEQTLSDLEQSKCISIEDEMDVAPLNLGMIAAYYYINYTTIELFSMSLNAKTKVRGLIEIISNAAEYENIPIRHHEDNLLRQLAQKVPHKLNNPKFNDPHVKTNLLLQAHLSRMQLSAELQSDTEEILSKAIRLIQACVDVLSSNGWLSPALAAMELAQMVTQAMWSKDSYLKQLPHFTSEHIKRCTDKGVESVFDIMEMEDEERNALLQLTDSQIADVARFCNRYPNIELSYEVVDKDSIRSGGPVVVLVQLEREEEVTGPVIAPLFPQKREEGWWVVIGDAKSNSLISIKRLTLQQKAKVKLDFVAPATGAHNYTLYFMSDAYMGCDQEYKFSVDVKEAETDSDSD
row,binding result,Binder
1,binds,"human PRPF8 Jab1/MPN-like domain (PRPF8^JM, residues 2064-2335) (domain or fragment, human PRPF8, Jab1/MPN-like domain, residues 2064-2335; The GST tag is TEV-cleavable; also called PRPF8 JM domain; source: pET-M11 plasmid, codon-optimized synthetic gene; purified, obtained as described previously (Mozaffari-Jovin et al., 2013)) not shown"
2,binds,"human PRPF8 C-terminal fragment encompassing the RH and JM domains (PRPF8^RH-JM, residues 1760-2335) (domain or fragment, human PRPF8, C-terminal fragment with the RH and JM domains, residues 1760-2335; no tag is stated for this chain (pIDK donor vector); also called PRPF8^RM-JM; prpf8^1760–2335) not shown"
